Consider 13 molecules from patent US20160152995A1, “METHODS AND COMPOSITIONS TO IMPROVE THE SPREAD OF CHEMICAL SIGNALS IN PLANTS” (PIONEER HI-BRED INTERNATIONAL, INC., priority 2013, published 2016).

The test system of this data set is E. coli assay strain Km3. Description: Liquid B-galactosidase assays of chlorsulfuron repressor hits (induction and repression). Conditions: CsL4.2 hits; for IND = induction with 20 ppb CS (B-galactosidase) / REP = repression in absence of inducer (B-galactosidase): liquid B-galactosidase assay; for REP = repression in absence of inducer (B-galactosidase): no inducer; for F. IND = fold induction (IND/REP) (B-galactosidase): 20 ppb Cs vs no inducer. As for the experimental part: In order to create new diversity for shuffling the top clone from CsL3 was subjected to error prone PCR mutagenesis using Mutazyme (Stratagene). The mutated PCR product encoding the CsR ligand binding domain was inserted into library expression vector pVER7334 as a Sac1 to Asc1 fragment, transformed into library strain Km3 and plated onto LB+40 ug/ml Kanamycin and 50 ug/ml Carbenecillin. Approximately 10,000 colonies were then replica plated onto M9 Xgal assay medium +/−20 ppb Cs. Putative hits were then re-arrayed and replica plated onto the same assay medium. Performance was gauged by the level of blue colony color after 24 hrs incubation on inducer (induction) and 72 hrs incubation without inducer (repression). The top hits were then subjected to liquid B-galactosidase assays for quantitative assessment (Table 21).
Seventh round library CsL4.2 was designed based on the best diversity from CsL3 and CsL3-MTZ library screens (Table 14). The library was assembled with oligonucleotides shown below in Table 22. The first and last primers were used as rescue primers. CsL4.2 included a C-terminal 6×His-tag extension to facilitate protein purification. The library was assembled and cloned into vector pVER7334 Sac1 to Asc1, transformed into library assay strain Km3 and plated onto LB+40 ug/m1 Kanamycin and 50 ug/ml carbenecillin. Approximately 8,000 colonies were re-arrayed into 384-well format and replica plated onto M9 Xgal assay medium +/−2 ppb Cs. Putative hits were re-arrayed in 96-well format onto the same media for re-testing. Confirmed hits were then tested for induction and repression aspects in liquid culture using B-galactosidase assays.
Mutagenesis reactions were transformed into E. coli assay strain Km3 and plated onto LB+50 ug/ml Carbenecillin. Colonies were then re-arrayed into 384 well format and replica plated onto M9 Xgal assay medium +/−5 ppb Chlorsulfuron. Putative hits were then re-arrayed and analyzed by B-galactosidase assays relative to the parent clones (FIG. 10).

B1: CsL4.2-15: top CsR hit of library CsL4.2 (protein)
chain: MARLDKSKVINSALELLNEVGIEGLTTRKLAQKLGVEQPTLYWHVKNKRALLDALAIEMHDRHQTHYLPLEGESWQDFLRNFAKSMRRALLSHRDGAKVSLGTRWTEQQYETAENMLAFLTQQGFSLENALYATDAVRVFTLGAVLLDQEQQVAKEERETPTTDSMPPLLRQAWELKVHQGAEPAFLFGLELIIAGLEKQLKRESGS
modifications: Sulfonylurea responsive repressor
With B1, the “IND = induction with 20 ppb CS (B-galactosidase)” value (“IND = induction with 20 ppb CS” below) was determined as 4.0 and the “REP = repression in absence of inducer (B-galactosidase)” value (“REP = repression in absence of inducer” below) was determined as 0.2.

B2: CsL4.2-22 (protein)
chain: MARLDKSKVINSALELLNEVGIEGLTTRKLAQKLGVEQPTLYWHVKNKRALLDALAIEMHDRHQTHYLPLEGESWQDFLRNFAKSMRRALLSHRDGAKIALGTRWTEQQYETAENMLAFLTQQGFSLENALYATDAVRVFTLGAVLLDQEQQVAKEERETPTPDSMPPLLRQAWELKDHQGAEPAFLFGLELIIAGLEKQLKRESGSHHHHHH
modifications: Sulfonylurea responsive repressor
In the case of B2, the “F. IND = fold induction (IND/REP) (B-galactosidase)” value (“F. IND = fold induction (IND/REP)” below) is on record as 20.8, the “IND = induction with 20 ppb CS” value turned out to be 5.4 and the “REP = repression in absence of inducer” value was determined as 0.3.

B3: CsL4.2-08 (protein)
chain: MARLDKSKVINSALELLNEVGIEGLTTRKLAQKLGVEQPTLYWHVKNKRALLDALAIEMMDRHQTHYLPLEGESWQDFLRNFAKSMRRALLSHRDGAKVALGTRWTEQQYETAENMLAFLTQHGFSLENALYATDAVRVFTLGAVLLDQEQQVAKEERETPTPDSMPPLLRQAWELKVHQGAEPAFLFGLELIIAGLEKQLKRESGSHHQHHH
modifications: Sulfonylurea responsive repressor
Consider B3, for which the “IND = induction with 20 ppb CS” value was determined as 10.7 and the “REP = repression in absence of inducer” value is 0.7.

B4: CsL4.2-04 (protein)
chain: MARLDKSKVINSALELLNEVGIEGLTTRKLAQKLGVEQPTLYWHVKNKRALLDALAIEMHDRHQTHYLPLEGESWQDFLRNFAKSMRCALLSHRDGAKVALGTRWTEQQYETAENMLAFLTQQGFSLENALYATDAVRVFTLGAVLLDQEQQVANEGRETPTTDSMPPLLRQAWELKEHQGAEPAFLFGLELIIAGLEKQLKRESGSHHHHHH
modifications: Sulfonylurea responsive repressor
Take B4: the “F. IND = fold induction (IND/REP)” value was 10.2, the “IND = induction with 20 ppb CS” value was found to be 4.3 and the “REP = repression in absence of inducer” value is given as 0.4.

B5: CsL4.2-21 (protein)
chain: MARLDKSKVINSALELLNEVGIEGLTTRKLAQKLGVEQPTLYWHVKNKRALLDALAIEMMDRHGTHYLPLEGESWQDFLRNYAKSMRRALLSHRDGAKVALGTRWTEQQYETAENMLACLTQQGFSLENALYATSAVRVFTLGAVLLDQEQQVANEERETPTTDSMPPLLRQAWELKVHQGAEPAFLFGLELIIAGLEKQLKRESGSHHHHHH
modifications: Sulfonylurea responsive repressor
As to B5, the “F. IND = fold induction (IND/REP)” value came to 13.2, the “IND = induction with 20 ppb CS” value amounted to 3.2 and the “REP = repression in absence of inducer” value is 0.2.

B6: CsL4.2-07 (protein)
chain: MARLDKSKVINSALELLNEVGIEGLTTRKLAQKLGVEQPTLYWHVKNKRALLDALAIEMHDRHQTHYLPLEGESWQDYLRNFAKSMRCALLSHRDGAKIALGTRWTEQQYETAENMLAFLTQQGFSLENALYATDAVRVFTLGAVLLDQEQQVAKEERETPTPDSMPPLLRQAWELKVHQGAEPAFLFGLELIIAGLEKQLKRESGSHHHHHH
modifications: Sulfonylurea responsive repressor
B6: the “F. IND = fold induction (IND/REP)” value worked out at 18.9, the “IND = induction with 20 ppb CS” value worked out at 6.5 and the “REP = repression in absence of inducer” value stood at 0.3.

B7: CsL4.2-01 (protein)
chain: MARLDKSKVINSALELLNEVGIEGLTTRKLAQKLGVEQPTLYWHVKNKRALLDALAIEMHDRHQTHYLPLEGESWQDYLRNFAKSMRRALLSHRDGAKVALGTRWTEQQYETAENMLAFLTQQGFSLENALYATDAVRVFTLGAVLLDQEGQVAKEERETPTTDSMPPLLRQAWELKVHQGAEPAFLFGLELIIAGLEKQLKRESGSHHHHHH
modifications: Sulfonylurea responsive repressor
Turning to B7, the “F. IND = fold induction (IND/REP)” value was determined as 9.8, the “IND = induction with 20 ppb CS” value was determined as 3.8 and the “REP = repression in absence of inducer” value was 0.4.

B8: CsL4.2-16 (protein)
chain: MARLDKSKVINSALELLNEVGIEGLTTRKLAQKLGVEQPTLYWHVKNKRALLDALAIEMMDRHQTHYLPLEGESWQDYLRNFAKSMRCALLSHRDGAKVSLGTRWTEQQYETAENMLAFLTQQGFSLENALYATDAVRVFTLGAVLLDQEGQVANEERETPTPDRMPPLLRQAWELKVHQGAEPAFLFGLELIIAGLEKQLKRESGSHHHHHH
modifications: Sulfonylurea responsive repressor
B8: the “F. IND = fold induction (IND/REP)” value was 15.2, the “IND = induction with 20 ppb CS” value was 3.8 and the “REP = repression in absence of inducer” value worked out at 0.3.

B9: CsL4.2-23 (protein)
chain: MARLDKSKVINSALELLNEVGIEGLTTRKLAQKLGVEQPTLYWHVKNKRALLDALAIEMMDRHQTHYLPLEGESWQDYLRNFAKSMRCALLSHRDGAKVALGTRWTEQQYETAENMLAFLTQQGFSLENALYATSAVRVFTLGAVLLDQEQQVAKEERETPTPDRMPPLLRQAWELKVHQGAEPAFLFGLELIIAGLEKQLKRESGSHHHHHH
modifications: Sulfonylurea responsive repressor
As to B9, the “F. IND = fold induction (IND/REP)” value was found to be 10.5, the “IND = induction with 20 ppb CS” value was found to be 10.4 and the “REP = repression in absence of inducer” value stood at 1.0.

B10: CsL4.2-30 (protein)
chain: MARLDKSKVINSALELLNEVGIEGLTTRKLAQKLGVEQPTLYWHVKNKRALLDALAIEMHDRHQTHYLPLEGESWQDFLRNFAKSMRRALLSHRDGAKVALGTRWTEQQYETAENMLAFLTQQGFSLENALYATSAVRVFTLGAVLLDQEGQVANEERETPTPDSMPPLLRQAWELKVHQGAEPAFLFGLELIIAGLEKQLKRESGSHHHHHH
modifications: Sulfonylurea responsive repressor
Take B10: the “F. IND = fold induction (IND/REP)” value is recorded as 10.8, the “IND = induction with 20 ppb CS” value was found to be 4.9 and the “REP = repression in absence of inducer” value is given as 0.5.

B11: CsL4.2-28 (protein)
chain: MARLDKSKVINSALELLNEVGIEGLTTRKLAQKLGVEQPTLYWHVKNKRALLDALAIEMMDRHQTHYLPLEGESWQDYLRNFAKSMRCALLSHRDGAKVALGTRWTEQQYETAENMLAFLTQQGFSLENALYATSAVRVFTLGAVLLDQEQQVAKQERETPTPDSMPPLLRQAWELKVHQGAEPAFLFGLELIIAGLEKQLKRESGSHHHHHH
modifications: Sulfonylurea responsive repressor
As to B11, the “F. IND = fold induction (IND/REP)” value came out at 11.3, the “IND = induction with 20 ppb CS” value was found to be 5.3 and the “REP = repression in absence of inducer” value came to 0.5.

B12: CsL4.2-24 (protein)
chain: MARLDKSKVINSALELLNEVGIEGLTTRKLAQKLGVEQPTLYWHVKNKRALLDALAIEMHDRHQTHYLPLEGESWQDYLRNFAKSMRCALLSHRDGAKVALGTRWTEQQYETAENMLAFLTQQGFSLENALYATSAVRVFTLGAVLLDQEGQVANEERETPTPDSMPPLLRQAWELKVHQGAEPAFLFGLELIIAGLEKQLKRESGSHHHHHH
modifications: Sulfonylurea responsive repressor
Consider B12, for which the “F. IND = fold induction (IND/REP)” value worked out at 14.3, the “IND = induction with 20 ppb CS” value is 5.4 and the “REP = repression in absence of inducer” value is 0.4.

B13: CsL4.2-26 (protein)
chain: MARLDKSKVINSALELLNEVGIEGLTTRKLAQKLGVEQPTLYWHVKNKRALLDALAIEMHDRHQTHYLPLEGESWQDYLRNFAKSMRCALLSHRDGAKVSLGTRWTEQQYETAENMLAFLTQQGFSLENALYATSAVRVFTLGAVLLDQEQQVAKEERETPTPDRMPPLLRQAWELKVHQGAEPAFLFGLELIIAGLEKQLKRESGSHHHHHH
modifications: Sulfonylurea responsive repressor
With B13, the “F. IND = fold induction (IND/REP)” value amounted to 10.6, the “IND = induction with 20 ppb CS” value is 3.1 and the “REP = repression in absence of inducer” value amounted to 0.3.
